Data taken from patent US20070196354A1, “Method of treating diabetes by inhibiting degradation of at least one of crebl1, atf6, and hnf-4 alpha by htra” (priority 2003, published 2007).

Biological target: T1, ATF6 (Homo sapiens, UniProt P18850)
T1 construct: expressed in transfected cells; host or cells: HEK293T
T1 sequence (P18850 1-670): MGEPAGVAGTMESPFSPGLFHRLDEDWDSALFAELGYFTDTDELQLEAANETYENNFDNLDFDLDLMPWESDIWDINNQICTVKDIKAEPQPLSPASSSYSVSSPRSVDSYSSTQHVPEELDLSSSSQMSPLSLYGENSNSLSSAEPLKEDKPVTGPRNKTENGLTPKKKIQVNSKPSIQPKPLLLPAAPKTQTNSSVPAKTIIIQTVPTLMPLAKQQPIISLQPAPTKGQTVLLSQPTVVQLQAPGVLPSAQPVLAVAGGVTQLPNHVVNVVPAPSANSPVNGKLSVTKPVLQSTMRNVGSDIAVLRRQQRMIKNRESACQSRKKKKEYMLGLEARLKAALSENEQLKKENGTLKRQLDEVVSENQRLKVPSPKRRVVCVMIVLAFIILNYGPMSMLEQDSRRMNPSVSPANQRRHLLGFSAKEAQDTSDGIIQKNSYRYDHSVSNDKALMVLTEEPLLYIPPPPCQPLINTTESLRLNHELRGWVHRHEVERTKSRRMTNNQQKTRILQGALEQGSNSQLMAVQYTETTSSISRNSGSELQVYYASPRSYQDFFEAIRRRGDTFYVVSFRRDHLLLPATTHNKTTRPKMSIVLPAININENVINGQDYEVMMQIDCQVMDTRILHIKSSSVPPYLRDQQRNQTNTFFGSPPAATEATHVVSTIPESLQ
Assay: In vitro protease assay, ATF6 captured on resin
Format: biochemical
Conditions: 50 μg/ml, 37° C., four hours (4 h) or overnight (O/N), anti-c-Myc detection
Method: CREBL1 and ATF6 which were captured on the resin were used in the experiments in order to eliminate the influence of proteinaceous impurities contained in the soluble fractions prepared from the cells obtained by transfecting an expression plasmid of CREBL1 or ATF6. Three hundreds μl of each soluble fraction of CREBL1 and ATF6 was dispensed to six tubes (Nos. 1 to 6), followed by adding 20 μl of protein G sepharose 4 FF (Amersham) of 50% slurry that had been subjected to blocking with BSA, to each of tubes, subjected to overturned mixing at 4° C. for 1 hour, and then subjected to centrifugation (10,000 rpm, 10 sec, 4° C.) to collect the supernatant, and thus the pre-treatment (pre-clean) was performed. The resultant supernatant was mixed with 1.7 μl (2 μg) of anti-Myc antibody (Invitrogen), subjected to overturned mixing at 4° C. for 3 hours, followed by adding 20 μl of protein G sepharose 4 FF that had been subjected to blocking with BSA, and then subjected to overturned mixing at 4° C. overnight. Thus, CREBL1 and ATF6 were respectively captured on protein G sepharose 4 FF. […]

B1: mature HtrA2: SEQ ID NO: 4; mature protein generated from HtrA2 precursor by cleavage of N-terminal 133 residues, has protease activity (protein, listed as Homo sapiens)
chain: MAVPSPPPASPRSQYNFIADVVEKTAPAVVYIEILDRHPFLGREVPISNGSGFVVAADGLIVTNAHVVADRRRVRVRLLSGDTYEAVVTAVDPVADIATLRIQTKEPLPTLPLGRSADVRQGEFVVAMGSPFALQNTITSGIVSSAQRPARDLGLPQTNVEYIQTDAAIDFGNSGGPLVNLDGEVIGVNTMKVTAGISFAIPSDRLREFLHRGEKKNSSSGISGSQRRYIGVMMLTLSPSILAELQLREPSFPDVQHGVLIHKVILGSPAHRAGLRPGDVILAIGEQMVQNAEDVYEAVRTQSQLAVQIRRGRETLTLYVTPEVTE
modifications: mature HtrA2
degradation of ATF6 (band by western blotting): the band of ATF6 was reduced significantly
